# Biological target: Cry11Aa toxin, trypsin-activated (Bacillus thuringiensis subsp. …, UniProt P21256 1-643)
# Assay: ELISA
binder,measurement,value
truncated AaeAPN1 fragment AaeAPN1t (amino acids 525-778) (domain or fragment) RTYETGDIIISQERFISDRKVPNTNVWMIPYNYVHQSKADFDDLSTFSWLSTKAARINTEVPANEWIIFNKQQVGYYRVNYDANNWELITNALINNLSSIDRLNRAQLIDDAYWLARSGRLDIEVLMKLLTYLKDETEYAPWTAANNVLSYFNGKLRGTPAYKDFTTMVDHLIKKVYKTLDVTAVSDTEPLLHKYLKQTISTWACLIGNEDCLKRTKEALQKEVTEGIPVHPDVATVVYCNGLRTADVAEYQYL,Kd,8.5 nM

# — PMC2763025 (Insect biochemistry and molecular biology, 2009)
